According to patent publication US20170119790A1, “Agents, Uses and Methods” (CYTOGUIDE A/S, priority 2009, published 2017):

Assays:
CD163 = CD163 (Homo sapiens, UniProt Q86VB7); assay: Surface plasmon resonance (Biacore) analysis of mAb binding to immobilized CD163
Experimental: (§1) SPR analysis of the binding of mAbs to CD163 was carried out on a Biacore 2000 instrument (Biacore, Uppsala, Sweden). The Biacore sensor chips (type CM5) were activated with a 1:1 mixture of 0.2 M N-ethyl-N′-(3-dimethylaminopropyl) carbodiimide and 0.05 M N-hydroxysuccimide in water. Purified recombinant CD163 were immobilized in 10 mM sodium acetate, pH 4.0, and the remaining binding sites were blocked with 1 M ethanolamine, pH 8.5. The SPR signal generated from immobilized recombinant CD163 proteins corresponded to 40-70 fmol of protein/mm^2. Sensorgrams were generated using mAb concentrations ranging from 5-100 nM. The flow cells were regenerated with 1.6 M glycine-HCl, pH 3. The running buffer used for the experiment was either CaHBS 10 mM Hepes, 150 mM NaCl, 3.0 mM CaCl2, 1.0 mM EGTA, and 0.005% Tween 20, […], and 0.005% Tween 20, pH 7.4, mAb samples were dissolved in the same buffer as the running buffer used. All binding data were analyzed using the Biamolecular Interaction Analysis evaluation program version 3.1.
as §1, with “7.4, KN2/NRY and Mac-158” for “7.4, mAb”, “buffer used at a concentration of 5 μg/ml.” for “buffer used.”

[1] = target: T1, human CD163 LKIHEK containing mutants (VKVQEE-->LKIHEK and double mutant) (Homo sapiens, UniProt Q86VB7, E71K/Q69H/V66L/V68I); assay: Western blotting of human CD163 and knock out mutants; assay type: binding
T1 construct: a pcDNA5-FRT-humanCD163 plasmid harboring the full length human CD163 cDNA; expressed in transfected cells; host or cells: HEK 293, transient
T1 sequence (Q86VB7 42-1156 V66L/V68I/Q69H/E71K): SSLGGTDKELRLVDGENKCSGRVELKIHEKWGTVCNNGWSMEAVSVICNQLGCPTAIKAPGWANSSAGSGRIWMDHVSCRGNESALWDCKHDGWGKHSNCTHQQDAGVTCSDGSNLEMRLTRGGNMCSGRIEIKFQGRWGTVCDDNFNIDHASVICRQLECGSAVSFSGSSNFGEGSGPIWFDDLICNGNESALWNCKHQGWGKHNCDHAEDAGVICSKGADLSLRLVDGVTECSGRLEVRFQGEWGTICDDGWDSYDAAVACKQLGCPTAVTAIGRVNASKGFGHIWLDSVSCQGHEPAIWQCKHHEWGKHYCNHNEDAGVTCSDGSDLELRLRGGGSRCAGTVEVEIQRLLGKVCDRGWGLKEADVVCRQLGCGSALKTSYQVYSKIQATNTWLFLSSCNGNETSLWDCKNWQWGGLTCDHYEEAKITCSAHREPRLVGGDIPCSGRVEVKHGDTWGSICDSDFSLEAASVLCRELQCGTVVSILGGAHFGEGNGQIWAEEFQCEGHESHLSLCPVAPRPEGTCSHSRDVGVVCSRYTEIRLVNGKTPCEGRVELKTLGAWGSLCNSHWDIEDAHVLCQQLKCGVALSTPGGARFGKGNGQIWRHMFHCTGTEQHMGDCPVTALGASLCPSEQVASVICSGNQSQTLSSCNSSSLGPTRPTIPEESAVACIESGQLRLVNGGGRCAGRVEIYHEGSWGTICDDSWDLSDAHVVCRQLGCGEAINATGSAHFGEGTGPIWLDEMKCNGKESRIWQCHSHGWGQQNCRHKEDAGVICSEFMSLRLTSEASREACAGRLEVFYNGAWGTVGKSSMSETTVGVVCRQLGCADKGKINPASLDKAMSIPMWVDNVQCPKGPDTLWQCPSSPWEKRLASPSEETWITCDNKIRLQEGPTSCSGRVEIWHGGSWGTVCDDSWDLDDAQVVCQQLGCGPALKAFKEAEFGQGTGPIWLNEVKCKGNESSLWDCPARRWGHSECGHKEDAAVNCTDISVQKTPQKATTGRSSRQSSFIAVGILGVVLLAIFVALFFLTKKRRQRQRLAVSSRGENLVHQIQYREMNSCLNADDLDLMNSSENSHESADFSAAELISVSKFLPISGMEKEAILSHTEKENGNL
Text: (§2) For the mutant generation the Site-directed Ligation Independent Mutagenesis (SLIM) method was used (1). Primers are listed in the primer table. The template for the generation of the two first mutants was a pcDNA5-FRT-humanCD163 plasmid harboring the full length human CD163 cDNA. The primers LKI FT, RT, F, and R were used to generate the mutant plasmid pcDNA5-FRT-humanCD163 (VKVQEE-->LKIHEK). The primers R60D FT, RT, F, and R were used to generate the mutant plasmid pcDNA5-FRT-humanCD163 (R60D). Generation of a double mutant was done by performing a SLIM reaction on pcDNA5-FRT-humanCD163 (VKVQEE-->LKIHEK) with the primers R60D FT, RT, F, and R.
(§3) Each cell pellet was added 1 ml lysis buffer (10 mM Tris pH 8, 140 mM NaCl, 15 mM MgSO4, 1% Triton X-100) and incubated for 15 min at 4 °C with rotation. After centrifugation for 30 min at 6000 rpm the supernatants were sterile filtered.
(§4) 90 μl of each of the supernatants were added 30 μl of 4×LDS sample buffer. 3×20 μl samples of each supernatant and 8 μl SeeBlue plus2 prestained marker were loaded on NuPage 4-12% Bis-Tris-Gels (Invitrogen, Taastrup, Denmark) and the SDS-PAGEs were run with MOPS running buffer according to instructions of the manufacturer (200 V constant for 50 min). Blotting to PVDF membranes (Invitrogen, Taastrup, Denmark) was done on an iBLOT device according to instructions of the manufacturer. […]

human CD163 R60D = target: T2, human CD163 R60D (Homo sapiens, UniProt Q86VB7, R112D); assay: as above; assay type: binding
T2 construct: a pcDNA5-FRT-humanCD163 plasmid harboring the full length human CD163 cDNA; expressed in transfected cells; host or cells: HEK 293, transient
T2 sequence (Q86VB7 42-1156 R112D): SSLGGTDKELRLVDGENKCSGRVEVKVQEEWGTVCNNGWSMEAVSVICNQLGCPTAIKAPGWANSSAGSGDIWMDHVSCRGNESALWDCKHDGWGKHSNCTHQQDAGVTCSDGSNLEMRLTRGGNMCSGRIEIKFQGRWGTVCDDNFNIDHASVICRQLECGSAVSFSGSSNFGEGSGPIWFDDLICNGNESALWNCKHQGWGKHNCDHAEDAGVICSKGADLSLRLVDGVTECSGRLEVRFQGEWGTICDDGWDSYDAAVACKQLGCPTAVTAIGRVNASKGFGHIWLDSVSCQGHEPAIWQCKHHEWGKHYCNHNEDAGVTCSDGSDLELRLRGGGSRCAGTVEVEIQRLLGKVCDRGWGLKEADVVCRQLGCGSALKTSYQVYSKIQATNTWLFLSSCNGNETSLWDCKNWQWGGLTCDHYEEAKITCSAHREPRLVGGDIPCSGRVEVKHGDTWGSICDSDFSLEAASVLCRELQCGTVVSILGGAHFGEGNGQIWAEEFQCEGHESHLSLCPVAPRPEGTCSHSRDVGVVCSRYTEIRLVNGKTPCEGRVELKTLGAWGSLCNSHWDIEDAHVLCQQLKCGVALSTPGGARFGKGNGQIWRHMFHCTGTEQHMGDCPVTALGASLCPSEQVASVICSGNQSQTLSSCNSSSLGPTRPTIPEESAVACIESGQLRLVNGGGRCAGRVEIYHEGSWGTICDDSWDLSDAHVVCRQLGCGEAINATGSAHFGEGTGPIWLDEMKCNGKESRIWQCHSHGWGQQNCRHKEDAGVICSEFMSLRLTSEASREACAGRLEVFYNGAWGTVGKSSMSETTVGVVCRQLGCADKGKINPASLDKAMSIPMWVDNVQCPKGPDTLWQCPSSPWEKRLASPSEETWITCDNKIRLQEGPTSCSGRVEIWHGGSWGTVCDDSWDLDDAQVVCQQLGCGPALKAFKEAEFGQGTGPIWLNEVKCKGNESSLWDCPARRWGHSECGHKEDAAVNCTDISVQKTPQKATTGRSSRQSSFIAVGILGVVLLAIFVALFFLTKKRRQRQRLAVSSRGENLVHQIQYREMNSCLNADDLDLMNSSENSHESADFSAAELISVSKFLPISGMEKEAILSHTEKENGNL
Text: as §2, §3, §4

Chain of CD163 (Q86VB7 42-1156): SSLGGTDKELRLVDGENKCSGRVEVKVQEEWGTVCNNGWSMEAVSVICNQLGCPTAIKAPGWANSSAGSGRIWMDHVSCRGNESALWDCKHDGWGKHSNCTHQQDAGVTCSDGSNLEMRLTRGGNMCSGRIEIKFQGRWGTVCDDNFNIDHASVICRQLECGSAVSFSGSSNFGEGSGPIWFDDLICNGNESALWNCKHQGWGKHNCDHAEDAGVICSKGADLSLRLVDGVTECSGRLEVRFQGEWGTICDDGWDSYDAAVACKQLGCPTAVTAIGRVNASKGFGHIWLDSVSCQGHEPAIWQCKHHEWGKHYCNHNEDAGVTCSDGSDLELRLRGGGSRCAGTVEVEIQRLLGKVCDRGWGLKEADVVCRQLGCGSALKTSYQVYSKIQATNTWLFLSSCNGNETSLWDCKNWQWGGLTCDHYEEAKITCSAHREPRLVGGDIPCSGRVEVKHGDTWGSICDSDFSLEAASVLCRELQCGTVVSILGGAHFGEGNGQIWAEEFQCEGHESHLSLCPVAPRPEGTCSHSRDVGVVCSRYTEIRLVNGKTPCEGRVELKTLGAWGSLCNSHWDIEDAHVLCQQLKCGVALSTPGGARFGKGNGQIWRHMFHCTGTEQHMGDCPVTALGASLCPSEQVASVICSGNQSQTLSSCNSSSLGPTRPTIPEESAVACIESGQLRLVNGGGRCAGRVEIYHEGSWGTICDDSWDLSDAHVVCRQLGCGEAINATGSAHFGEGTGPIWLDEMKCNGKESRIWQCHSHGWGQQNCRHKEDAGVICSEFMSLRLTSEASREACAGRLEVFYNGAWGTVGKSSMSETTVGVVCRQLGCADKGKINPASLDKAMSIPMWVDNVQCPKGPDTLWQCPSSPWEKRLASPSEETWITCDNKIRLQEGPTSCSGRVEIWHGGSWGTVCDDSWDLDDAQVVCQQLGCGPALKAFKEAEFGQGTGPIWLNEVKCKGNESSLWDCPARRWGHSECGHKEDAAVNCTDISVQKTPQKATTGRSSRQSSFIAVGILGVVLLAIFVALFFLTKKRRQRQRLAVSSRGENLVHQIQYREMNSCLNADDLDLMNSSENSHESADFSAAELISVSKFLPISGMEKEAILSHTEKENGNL

B1: MAC2-158: anti-human CD163 murine mAb, binds SRCR domain 1, IQ Products; VH SEQ ID NO: 1, VL SEQ ID NO: 2 (antibody, V domains shown)
VH: DVQLQESGPGLVKPSQSLSLTCTVTGYSITSDYAWNWIRQFPGNKLEWMGYITYSGITNYNPSLKSQISITRDTSKNQFFLQLNSVTTEDTATYYCVSGTYYFDYWGQGTTLTVSS
VL: SVVMTQTPKSLLISIGDRVTITCKASQSVSSDVAWFQQKPGQSPKPLIYYASNRYTGVPDRFTGSGYGTDFTFTISSVQAEDLAVYFCGQDYTSPRTFGGGTKLEIKRA
modifications: Mac2-158 VH; Mac2-158 VL
CD163; KN2/NRY compared with Mac2-158, 5 μg/ml, FIG. 19
  affinity for human CD163 immobilized on a Biacore chip: Virtually similar affinities
CD163; comparison between mAbs
  strength of binding to CD163 in Biacore studies: high affinity
CD163; in both 2 mM free Ca2+ and 10 mM EDTA
  affinities for CD163: nanomolar or sub-nanomolar range
CD163; with/without calcium
  calcium dependence of binding activity in SPR-analysis: binding activity regardless extracellular levels of calcium
[1]
  binding in western blot: No binding was detected
Human CD163 R60D
  binding in western blot: very weak
